Results: patent US20070238143A1, “Metal ion mediated fluorescence superquenching assays, kits and reagents” (priority 2003, published 2007)

Assays:
[1] = target: T1, protein tyrosine phosphatase 1B (PTP-1B) (Homo sapiens, UniProt P18031); experiment: Protein tyrosine phosphatase 1B (PTP-1B) metal ion mediated superquenching assay, inhibition; format: biochemical; settings: inhibitor curve; FIG. 7
T1 construct: purchased Biomol
T1 sequence (P18031 1-435): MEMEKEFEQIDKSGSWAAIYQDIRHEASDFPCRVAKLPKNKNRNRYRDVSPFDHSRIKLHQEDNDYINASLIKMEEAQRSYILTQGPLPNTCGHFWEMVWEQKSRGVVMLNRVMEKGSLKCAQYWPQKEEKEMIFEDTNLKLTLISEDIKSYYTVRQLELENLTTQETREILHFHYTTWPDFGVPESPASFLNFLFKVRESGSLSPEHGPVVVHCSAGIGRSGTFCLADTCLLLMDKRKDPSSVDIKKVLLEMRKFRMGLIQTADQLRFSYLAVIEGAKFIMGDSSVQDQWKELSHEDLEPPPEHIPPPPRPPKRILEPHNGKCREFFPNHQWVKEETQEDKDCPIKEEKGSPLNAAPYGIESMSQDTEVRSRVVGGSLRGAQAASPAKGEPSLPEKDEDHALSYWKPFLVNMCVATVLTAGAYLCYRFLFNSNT
Description: For detection of phosphatase activity:
Recombinant PKA was purchased from Promega. […] Polystyrene amine functionalized beads were obtained from Interfacial Dynamics.
The format was tested for detection of protein tyrosine phosphatase activity 1B (PTP-1B) on a peptide substrate of different length and sequence composition than the one used for PKA.

biotin-LRRASLG = system: T2, biotin-LRRASLG
T2 sequence: LRRASLG

Rhodamine-LRRASLG = system: T3, Rhodamine-LRRASLG
T3 sequence: LRRASLG

Rhodamine-LRRA(pS)LG = system: T4, Rhodamine-LRRA(pS)LG
T4 sequence: LRRASLG

[2] = system: myelin basic protein (MBP)

In the case of `CCCCCCCCCCCCCCCC(=O)C1=C(O)C(CO)OC1=O` (stereo not shown) [RK-682], the IC50 [1] is reported as 26.4 nM.
For Recombinant Protein Kinase A (PKA), the “two-step PKA endpoint assay (fluorescence quench)” value (biotin-LRRASLG) was “the assays perform using either synthetic substrates with an N-terminal quencher or using biotinylated substrates to which a streptavidin-fluorescein conjugate is added” and the “endpoint measurement of PKA enzyme activity (polymer quench)” value (Rhodamine-LRRASLG) was “an increase in polymer quench correlates with enzyme concentration”.
Trypsin gave a Sample (sensor fluorescence after trypsin reaction) (Rhodamine-LRRA(pS)LG) of 42100, a Signal Increase (Rhodamine-LRRA(pS)LG) of 34400 and a Signal/Background (Rhodamine-LRRA(pS)LG) of 5.42.
For kinase PKCα, the “blocking kinase assay (fluorescence turn-on)” value [2] was “The resulting fluorescence correlates with the extent of mbp phosphorylation”.
